One experiment has as its target T1, ΔNTE-SynOCP1(ECH) (Synechocystis sp. PCC 6803, UniProt P74102 13-317).
T1 construct: Orange Carotenoid Protein (OCP1), Synechocystis sp; PCC 6803, Uniprot P74102, lacking residues Met1-Phe12 (the N-terminal extension); also called ΔNTE mutant of SynOCP1; ΔNTE-SynOCP1 holoform; source: obtained earlier [24]
T1 sequence (looked up): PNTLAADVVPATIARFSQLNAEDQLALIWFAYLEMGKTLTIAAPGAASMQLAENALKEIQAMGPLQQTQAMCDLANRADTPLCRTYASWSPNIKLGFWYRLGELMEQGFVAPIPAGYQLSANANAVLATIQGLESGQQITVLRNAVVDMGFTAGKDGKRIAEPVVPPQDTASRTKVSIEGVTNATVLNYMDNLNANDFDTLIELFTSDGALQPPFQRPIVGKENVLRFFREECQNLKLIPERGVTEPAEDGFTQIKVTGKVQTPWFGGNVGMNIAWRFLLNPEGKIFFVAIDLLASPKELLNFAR
Nature of the experiment: SEC; 10 μM OCP and 20 μM FRP pre-incubated in SEC buffer (20 mM Tris-HCl pH 7.6, 150 mM NaCl) for 15 min at room temperature; Superdex 200 Increase 5/150, 0.45 ml/min; profiles at 280 or 460 (or 500) nm, compared with algebraic sums of the single profiles. As to conditions: both partners purified.

In a further experiment the target is GcapOCP2(ECH) (Gloeocapsa sp. PCC 7428). Briefly: cell-based or functional assay.

This is an account of results in article doi:10.1101/2023.08.20.554024, “Structural framework for the understanding spectroscopic and functional signatures of the cyanobacterial Orange Carotenoid Protein families” (bioRxiv, 2023).

B1: Fluorescence Recovery Protein from Synechocystis sp. PCC 6803 (natural protein, UniProt P74103 1-109, looked up)
chain: MLQTAEAPWSQAETQSAHALFRKAYQRELDGLLATVQAQASQITQIDDLWKLHDFLSAKRHEIDGKYDDRQSVIIFVFAQLLKEGLVQAEELTFLAADKQSKIKALARL
notes: Fluorescence Recovery Protein (FRP), Synechocystis sp; PCC 6803, Uniprot P74103; also called SynFRP; FRP; source: obtained in previous works [24,30] as electrophoretically homogeneous preparation devoid of tags
B1: the binding result in the experiment with ΔNTE-SynOCP1(ECH) is “binds”. Also, the “τ1/2 of the R-O transition of GcapOCP2 (OD550 after switching off blue LED) with a two-fold molar excess of SynFRP, 5-23 °C (203 to 250 s at 5°C, 12 to 16 s at 20°C)” value with GcapOCP2(ECH) was 250 s.
